From article doi:10.1101/2023.11.01.565146 come the findings set out here.

The target of this assay is Mlph-ABD labelled with ATTO 488 NHS Ester dye (mouse) (UniProt Q91V27). Kind of assay: MST.
Chain of UniProt Q91V27 (Q91V27 401-590): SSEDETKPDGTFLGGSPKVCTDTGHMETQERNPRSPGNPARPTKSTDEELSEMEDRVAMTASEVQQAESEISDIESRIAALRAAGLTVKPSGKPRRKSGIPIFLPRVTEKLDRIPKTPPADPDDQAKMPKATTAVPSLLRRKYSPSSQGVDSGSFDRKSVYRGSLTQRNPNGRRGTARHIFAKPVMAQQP

For “Flag-Myo5a-MTD (residues 1106-1467), bacterial-expressed (domain or fragment)”, the Kd came to 562 nM.
